Here are results for 47 sequences from the NTF2 design screens of Basanta et al. (2020).

The data set in a line: protease stability score; higher = more stable; yeast display proteolysis, trypsin and chymotrypsin.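 Note: relative to predicted unfolded state with 0 unfolded-like and 1 meaning tenfold more protease.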
As to “HEEHDEMQEALRRFIDILHTGDEKERKELADPHVRIDVDGVDHHGREWLTKWTVRLAREMRIHPEIKHSEVFNGQIELHTSEKVDFNGVHEIIESFLLVIKINGRWFLTHVQVH”, the protease stability score came to 0.92.
In turn, “HEEHEEAWHEIELTYHLLNTGDFDEMNRLLDPNVRIHIGDKRYHGRHELDLLITKLGVKHVRWEVKHADIQGDKVDMDTIVHITQGDKEIRRDTRIKIRKIDGKWFVTELHVT” showed a protease stability score of 1.28.
As for “HEEHEKLRQLIEWYLEMLRTGDEESWLHLADPHVRNDVIYDGRHFQSHGRDRALDLLRLMLDLLGAKHLEVKRYRVIDGRVELDGRSRVGDKYQEMHLHLDVFNGRIHEMRIEIR”, the figure is 0.58.
The sequence “HEEHESLRRATRHELQTLETGDEDLFEKLVDPNYKVVINGVELHGMHELRRWIIELRIDDFELHDVNVVNGRASIDGTMHTHVNGQRLERKVRIHIEKINGRWVRREYIYH” registered a protease stability score of 0.726.
For “HEEHKHVKELAEMLIEWFLTGDEETTLDMADPDVRIDINGVDKIGRETVVEFKKRQHRDLGWDNIRFRPTHINAFDGRINIEGVIIVNGVTFKTEFRFEVINGRLKLDKWIVR” the value was 0.661.
For “HEEKELVNRSVELSYRVLKTGDEHTLEELLDPDAKTRLNINGKNEKLVGRENVLHIVTWFLDFLGIKHVELRDVRYVGDKVHIDMQIDVNGRHSRWHLIAEKIDGRWFMHSIQVEVH” the value was 0.18; for “HEEKENIEQFMRDLLHNWTTGNFEKIKEFLDPNTRIDWNGKDIHGRETESEEVKKYGIDHMSIILRHHTVQGDYAHIDTEIKIDINGRKIHIDARIDLLKINGRWVQKHVLYL”, 1.3; for “HEEKHEVQRFLEMLIELLVTGNEEILEHLADPHVRLEIDGRHFHGWKEFTRQYSELLKKLGADHVDMKIHEVHIIGDKVFIRGTDEFRVGDKTERKESHWVLLKVDGRWFIHSVKIG”, 1.99.
“HEEKHLMDEALELIKYFTETGDERQLTEYADPNVRIDIDGQRFHGREDWEELVREWNSRFKNLKFNFREIDVQGEFIHTRGELNVNGKRFDVRIVSDKINGRWILHSIHFE” came in with a protease stability score of 1.58.
For “HEELELRRRVLENWTKNMITGNEEETKKLADPNVRIDIDGVELHGMDIWYEYMRHIRIKIQHIERKDVKDYDGKVEVDADSHVEMEVNGKLTSTRRKLIFIHLKVDGRWVIHSISFH” the value was 0.823; for “HEENKELEDLLRVWMELVETGDEEELLKLADPDWRLDINGRRIHGRDKVLTWLREHREKLGVDHRHLFLKDVRTVNGRVDANGENEVQVNGKRIVIDIRFHLVVINGRIHMISLRLH”, 1.15.
In turn, “HEEQELLEEFVEKLRQTLETGDEHFTRELLDPNVRYVQGDKEWHGRDLAAELNKKLGIKVVDIKHVRYWNGRLDLRGEDQVGDKTTHTILHVDKFNGRWFYKEVIFV” yielded a protease stability score of 0.721.
For “HEEQKAIEEWAKRLWDVLLTGDEDELHELLDPHVKLEVHVDGKTIHRHGREEVIRFMVEMRIRDFKIEHVQMYGDKLHMNTRSRGIYNGKHRETEVSIIVTVVNGRLKMIIIEIR” the value was 2.06; for “HEERDLAMHVIKRFIDSTVTGNEQDLTKLLDPHVRIEQGEYHDHGWKYAQLMIERFRNVRIELRIHFIRVQGDKVQVDIDWEVHIGDKVISSRLEMYIIKVNGVWLIRYVIFE”, 0.854; for “HEESEDATRFLHQVIHALYTGDEKRFDELLDPRMRLHIGDKQHVGRENVSEFLLHLRIRHVHVHDFRVFDGRLHVDQTLDGEYDGRRREIHFELQITKINGRWFLNHFWIR”, 1.35.
For “HEHDQKSNKMSEILMELWKTGNEDWMDKLVDPNARTDIEVGDKRIENVGMEELHKWLFDHHRRIKGIKIIHRTMEVVGDKVTLHLELRFNGVRVEIIIRLIVIDGRVHSQHYEVRTE” the value was 0.59.
“HEHEEELHRVFKIFLELWTTGDEESMERLLDPNARWVELQGDKELTLIGRENARNRFKEIFDLAGFKYMHLDHEDIQGEKTRFEMTVEYDGRRTRMLLKIVVINGRVKVVKLEER” showed a protease stability score of 1.32.
Take “HEHEEELREFLRLWIEDLVTGNEDSLREFADPNMRIEQGDKEHHGREQFLEIMHRLVREARLEIILRRMNIFDGKANIDGELMIRIGDKHIRHHLRIIILKIDGVWLLKSIHVR”: the protease stability score was 1.94.
For the sequence “HEHEEEVRSMTRLFLHAFVTGDWRTIVELIDPNVRTWFNGKDDHGRESLFKNLIRVLEEFGADHVDITIEEMEVQGNKVRVKMIIEVIVGDKDLRLSINQQAYKVDGRWRVKEIIIH”, the protease stability score was determined as 0.725.
For the sequence “HEHEELIRWAVELLEHNTRTGDEETLIRLADPNVRMIFDGRDLVGRDWLLEFEERLGADHVELEFRHVRIIDGRVHVNGIMRHEFDGVRVERRTTIIVKKINGRWNNRTVEFR”, the protease stability score was 0.529.
As for “HEHEELLREYVERLLEIWRTGDEEKFMKNADPNVRIVYGDKDVHGREIWVEHFKRLFEELGFKYIDLRRVELINGVLHVHGNWNVNGRERKTELEFKIIDGRITSVQIRVH”, the figure is 1.27.
Consider “HEHEEMSELWLRIFERSVDTGDWNTLIELADPNVRQDYNGREYHGRESFVHTMREDIHRADHIEFHIDRFRVIGDKLDIDGTIIIRINGQTLIYRSHLHILKYDGRWIIKEVRFK”, for which the protease stability score was found to be 1.
As to “HEHEKWMEELVRRLKHHLRTGDFETWKELADPNAKVQLVVGDKHVESIGREEMEKWFHDHMMRLGIERFEFNIQSIYVQGEKIHLLGRLHFNGQDERAEIILVVVNGRIKQIHFHLH”, the protease stability score was determined as 1.2.
“HEHEQQVREIAKKLLHALLTGDEDEIYRLIDPNVRLIILVGDKEIHVHGRELVSEVMHKLFRELGVDHWHSRSELLIGNKFHVDTEQHFNGQTFETQVHILVIDGKVHLLTLQIH” displayed a protease stability score of 1.88.
For “HEHKEEVDELISMALESMHTGDEETWYRMADPHVRMDVNGQDIHGREEVSEIYVHWLREAGVKHIKIEDVKVINGRVDLHIFSKVNGRFFEYRLISEKIDGQWHIKSVRIL” the value was 0.399; for “HEHTKMLLDMHRLWMELWLTGDEHELEKLLDPNVRIIIHVNGVDISIHGRETVRRVLRHEIKRYDHLEINLKRHSAYDGKVESDTEFRVIFDGKRIELDTRIKNIVINGRTKEWIFELE”, 0.619.
As for “HEIDEWSEEWKHELIHNLRTGDEHRLKELADPHTRIIIDGREIHGMDFALKLIHKRVMEMRHKEFHIRRIDHQGEKIVMDVEVRVNFNGREDSVNFRIISEKFNGRWIIHYITLI”, the figure is 1.49; as for “HEIEEEVENAVRLISHLLLTGDEETLHDLADPEMRTIVGDKHLHGREMWSEVIRRLGVDVLVIKEIRVQGDWIHSDGVLLVNGQERDAKIHVRKVNGKWVITTFQLK”, 1.8; as for “HEIEEIARHINNIWEERSRTGDFRHFTTLLDPHARIDINGVELHGRELWMSRVYHHFQSHGIEYSVHTKHIEVFDGRVHLHGELFFHFNGVDITIRTHHTMRKVDGRWFVEQIIVH”, 0.468.
For “HEIHELLKRVVDMLRTLWETGDEETWNSLADPNTKFVIGDKEVVGMEEITRIFLHERERADHMKFEVRRIRTVGDKADSHGHLRLDIGNKHVTHEIDLHVRVINGRIKQVELRIH” the value was 1.33.
With “HEKEHRLHEIMELWLKLVQTGNEEILMELADPHTKLDIGDKHLHGRELTSRFLLHMRIEDLTIKRIDVQGDYAHIDGHVIGVINGRRFISDRHIHLDIYNGKHRRVEVRIE”, the protease stability score came out at 1.01.
For “HEKEKLEKDIWRLLVEWLETGNEHEFEKFMDPDARLFEDVDGKELRIHGREIAMEILHHLWRDFGVDHLVLKKASIIDGVVHLDVILDVNGRRIDTRIIFVIINGRIHSTHIHIR”, the protease stability score came to 1.52.
Turning to “HEKKEAYDYMVEILWKAMHTGDEKTLKHLFDPHTKVTQGDFEIHGMEQFSEHLKHARYRRVRVKFEDSHTQGEKVRMHTRLEFEGEIDGKRDTLEFETHQIVTKIDGRWVFESLEIE”, the protease stability score came to 0.7.
Turning to “HELDELTERTVKLFRDSSYTGDEDTLEDLADPNYRFVIDGKILMGREWVTRSLREWRVEDFRIHSVDLQGDKAHVDITVKGKFNGRFRTTRQEMVMMKVDGVWYFHSLTIR”, the protease stability score is 0.521.
For “HELEEEAKRAADIWFENLLTGDFDSLRKLVDPHVRMNYNGQEYHGWEEVIRFWKEYLDKVKNLQFHRHHVDVQGEKTTIDTRHIINGRSSEVEIRLLVINGRIQSNEVHEN” the value was 1.14; for “HELEERLEKWFKKFLHNMMTGDEDKLIHLADPHAKFRIDGVESHGRENWSRYVEERHLKLGLENIHVNVHRVHVQGDKIDMTGTLEINGQRVDFHIHIEVVDGRIKRLIIIIE”, 0.732.
Turning to “HELEHELEKFMQWIIEFLETGDEDALSTLLDPNVRYVINGQNLHGRSLLITTLHRLKEEIRVHWKIRDLKIQGDKAHSDGRFTIIVNGRKHSVDSHINVTIVDGRIHRVEIELR”, the protease stability score came out at 1.7.
For “HELKEELDEKLEFILRVFRTGNEERWRRLFDPEVRIEVGDKEIHGMDEALHFASHMRVEFKEMNFEDIRIVGEWVTLHIRVRGTIVYNGKKVERSMHIIIIILKIDGKWHIHEFRIH” the value was 1.44; for “HELLEHVKKIIEMWNKLLHTGDEETLNKLLDPRVRIHVNGRELIGREAVETELREIRFEITYTHVKEVDVVGDKVHVNTLLDGEFRIGNFVIRTRTDARLHLLKVDGKWLLESLHVT”, 1.24; for “HELLEIIHRVAQMIYENLLTGNEDLFEHLADPNRRLLVNGVDLVGWERVVKWEKEMRIHDHRLRDESMTRQGDKAFVHHRTELRGDINGREIHTETKLNIVIRKIDGKWIVERIEVRID”, 0.81.
For “HELLKLVEEMARITVKLFMTGDWKTFKHLADPHVREIINGRTVHGMEKVVEHRKEFKEELWIESITIHDVEVQGEKAHLNTKLIGHVNGREVEVEIYVNIEIINGRWNLVEIDIR” the value was 1.76; for “HELQEEATRFIKEFQEAVRTGDWRLWKKQLDPHVRLDIDGRHYHGRDIVLEFLRELEDKMGIERENVHIEHIDFQGDKVIVHSKEHGIVNGQRFDDKSSSIVLKINGQWTLHSVKIR”, 1.19; for “HELVEEAITMWKEMLVDELTGDEKKTSQNLDPNYKMVIDGQEIHGMEEWSRFLKEIRLHHEDFHVKDARVIDGRVKIDGHIKGTLEINGKRTRTETDVHIILIKINGRWVTHSVHFK”, 1.24.
As for “HEMEEMEELAFRLIEESIRTGDFTTLEDLFDPDTRIIIGDKDLHGREALRHLRERIDHLKELRVHRRTFIGDWLDMNLHMTGNVNGVEHRRDVRFIIWKINGQWRIHSVYEV”, the figure is 1.38; as for “HEMKEESEKAVRLMVHLFKTGDEETIYRMADPNARFFFDGRHIHGMDHVFREVLRLEREYGVKHFELRDMELRIFDGRIFLHIDGVEEFNGRRLETHLHFESRKIDGRWHFQSESIVLR”, 0.317.
Sequence “HEMQEEAHIATELIIDTFKTGDEKKMRELFDPTPRLHQGDKRFHGREEVVHIISERIHRFGFNHIEVKTVRVQGDFIIVHGEKDVNGQRVEVILHIWKYDGRWEVHRIEIR” gave a protease stability score of 1.23.
For “HENEEAAEHIFELFLDSLRTGDPDVVERLLDPHVKLDINGVEFHGREEAVHILMEEWKRLGIDHFEIKRIELRVYNGVVHIEIDSRTQVNGQKHHTKYRIIVIKINGRWHVNLLYIYIE” the value was 2.12.
